Laboratory results reported in patent US20240309103A1 (Regeneron, published 2024).

T1: mfNPR1-mFc (monkey)
T1 construct: also called dimeric monkey NPR1
T1 chain: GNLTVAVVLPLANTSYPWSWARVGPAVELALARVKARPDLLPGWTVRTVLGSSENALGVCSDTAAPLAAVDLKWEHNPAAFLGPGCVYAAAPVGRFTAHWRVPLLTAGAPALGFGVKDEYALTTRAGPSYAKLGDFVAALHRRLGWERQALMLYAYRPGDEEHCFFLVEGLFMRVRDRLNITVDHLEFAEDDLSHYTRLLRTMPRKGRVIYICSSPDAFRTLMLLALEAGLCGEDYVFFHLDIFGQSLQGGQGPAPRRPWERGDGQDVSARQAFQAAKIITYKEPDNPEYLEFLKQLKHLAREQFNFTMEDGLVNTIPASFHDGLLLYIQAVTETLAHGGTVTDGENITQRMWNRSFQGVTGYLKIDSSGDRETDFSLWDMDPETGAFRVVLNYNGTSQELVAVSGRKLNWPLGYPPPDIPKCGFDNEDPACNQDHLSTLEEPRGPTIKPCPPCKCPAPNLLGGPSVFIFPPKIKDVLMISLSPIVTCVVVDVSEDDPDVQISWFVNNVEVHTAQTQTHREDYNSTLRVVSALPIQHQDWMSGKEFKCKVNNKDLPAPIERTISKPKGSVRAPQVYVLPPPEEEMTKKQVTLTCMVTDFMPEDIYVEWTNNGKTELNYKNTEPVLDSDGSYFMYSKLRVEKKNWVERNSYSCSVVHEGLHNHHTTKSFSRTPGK


Experiments:
[1] = target: T2, hNPR1-mFc:hANP or hNPR1-hFc:hANP complex (human, UniProt P01160 124-151); assay: SPR, mAb captured, 25C
T2 construct: also called human NPR1 complexed to ANP
Method: (§1) Equilibrium dissociation constant (KD) for different NPR1 reagents binding to purified anti-NPR1 monoclonal antibodies (mAbs) were determined using a real-time surface plasmon resonance based Biacore 4000 biosensor. All binding studies were performed in 10 mM HEPES, 150 mM NaCl, 3 mM EDTA, and 0.05% v/v Surfactant Tween-20, pH 7.4 (HBS-ET) running buffer at 25° C. and 37° C. The Biacore CM5 sensor chip surface was first derivatized by amine coupling with either mouse anti-human Fc specific mAb (GE Healthcare, #BR100839) or goat anti-human Fcy specific polyclonal antibody (Jackson ImmunoResearch Laboratories, #BR-1008-39) to capture anti-NPR1 mAbs.

[2] = target: T2, hNPR1-mFc:hANP or hNPR1-hFc:hANP complex; assay: SPR, mAb captured, 37C
Method: as §1

[3] = target: T3, hNPR1-mFc:hBNP complex (human, UniProt P16860 103-134); assay: SPR, mAb captured, 25C
T3 construct: also called human NPR1 complexed to BNP
Method: as §1

[4] = target: T1, mfNPR1-mFc; assay: SPR, mAb captured, 25C
Method: as §1

[5] = target: T4, mfNPR1-mFc:hANP complex (monkey; human, UniProt P01160 124-151); assay: SPR, mAb captured, 25C
T4 construct: also called monkey NPR1 complexed to ANP
Method: as §1

[6] = target: T5, mfNPR1-mFc:hBNP complex (monkey; human, UniProt P16860 103-134); assay: SPR, mAb captured, 25C
T5 construct: also called monkey NPR1 complexed to BNP
Method: as §1

[7] = target: T3, hNPR1-mFc:hBNP complex; assay: SPR, mAb captured, 37C
Method: as §1

[8] = target: T4, mfNPR1-mFc:hANP complex; assay: SPR, mAb captured, 37C
Method: as §1

[9] = target: T1, mfNPR1-mFc; assay: SPR, mAb captured, 37C
Method: as §1

Binder	100 nM Ag Bound (RU) [1]	Kd [1]	koff [1]	kon [1]	t½ [1]	100 nM Ag Bound (RU) [2]	Kd [2]	koff [2]	kon [2]	t½ [2]	100 nM Ag Bound (RU) [3]	Kd [3]	koff [3]	kon [3]	t½ [3]	100 nM Ag Bound (RU) [5]	Kd [5]	koff [5]	kon [5]	t½ [5]	further results
mAb22810 (antibody, human IgG4, V domains shown) VH: EVQLVESGGGLVKPGGSLRLSCVVSGFTFRIYTMNWVRQAPGKGLEWVASISSSSSFINYADSLKGRFTISRDNAQNSLYLQMNSLRAEDTAIYYCARAAGNDVLPGRMDVWGQGTSVTVSS VL: EIVLTQSPGTLSLSPGERATLSCRASQSVSSNYLAWYQQKPGQVPSLLIYGASSRATGIPDRFSGSGSGTDFTLTITRLEPEDFAVYYCQQYGISPWTFGQGTKVEIK	14 RU	41.4 nM	0.000344 s⁻¹	8310 M⁻¹ s⁻¹	0.567 h	26 RU	75.5 nM	0.00104 s⁻¹	13700 M⁻¹ s⁻¹	0.183 h											
mAb25502 (antibody, human IgG4, V domains shown) VH: QLQLQESGPGLVKPSETLSLTCTVSGGSISSSSYYWGWIRQPPGKGLEWIGSIYYSGSPYYIPSLKSRVTISVDTSKNQFSLKLSSVTAADTAMYYCARQGRGIARAGPFDYWGQGTLVTVSS VL: DIQMTQSPSSLSASVGDRVTITCRASQGISNYLAWYQEKPGKVPKLLIYAASTLQSGVPSRFSGSGSGTDFTLTITSLQSEDVATYYCQKYNSAPPWTFGQGTKVEIK	81 RU	4.17 nM	0.000253 s⁻¹	60600 M⁻¹ s⁻¹	0.762 h	105 RU	6.49 nM	0.000467 s⁻¹	72000 M⁻¹ s⁻¹	0.412 h	78 RU	3.4 nM	0.000236 s⁻¹	69400 M⁻¹ s⁻¹	0.817 h	113 RU	3.56 nM	0.000264 s⁻¹	74000 M⁻¹ s⁻¹	0.73 h	100 nM Ag Bound (RU) [4]: 22 RU; Kd [4]: 1.6 nM; koff [4]: 0.000141 s⁻¹; kon [4]: 88300 M⁻¹ s⁻¹; t½ [4]: 1.37 h; 100 nM Ag Bound (RU) [6]: 110 RU; Kd [6]: 4.08 nM; koff [6]: 0.000282 s⁻¹; kon [6]: 69000 M⁻¹ s⁻¹; t½ [6]: 0.683 h; 100 nM Ag Bound (RU) [7]: 102 RU; Kd [7]: 7.82 nM; koff [7]: 0.000472 s⁻¹; kon [7]: 60300 M⁻¹ s⁻¹; t½ [7]: 0.408 h; 100 nM Ag Bound (RU) [8]: 143 RU; Kd [8]: 5.76 nM; koff [8]: 0.000524 s⁻¹; kon [8]: 91000 M⁻¹ s⁻¹; t½ [8]: 0.367 h
mAb25545 (antibody, human IgG4, V domains shown) VH: QVQLVESGGGLVKPGGSLRLSCAASGFTFSDYHLSWIRQAPGKGLEWVSYIRSSGRTIDYAASVKGRFTISRDNAKNSLYLQMNSLRVEDTAVYYCARENWIVLKVYAGIVGAPLDQWGQGTLVTVSS VL: not shown	28 RU	1.98 nM	4.63e-05 s⁻¹	23400 M⁻¹ s⁻¹	4.16 h	58 RU	2.35 nM	8.61e-05 s⁻¹	36700 M⁻¹ s⁻¹	2.24 h	27 RU	2.72 nM	6.26e-05 s⁻¹	23000 M⁻¹ s⁻¹	3.08 h	45 RU	2.35 nM	5.37e-05 s⁻¹	22800 M⁻¹ s⁻¹	3.58 h	100 nM Ag Bound (RU) [6]: 42 RU; Kd [6]: 2.08 nM; koff [6]: 4.97e-05 s⁻¹; kon [6]: 23900 M⁻¹ s⁻¹; t½ [6]: 3.88 h; 100 nM Ag Bound (RU) [7]: 56 RU; Kd [7]: 2.85 nM; koff [7]: 9.84e-05 s⁻¹; kon [7]: 34600 M⁻¹ s⁻¹; t½ [7]: 1.95 h; 100 nM Ag Bound (RU) [9]: 26 RU; Kd [9]: 2.62 nM; koff [9]: 0.000144 s⁻¹; kon [9]: 55100 M⁻¹ s⁻¹; t½ [9]: 1.33 h; 100 nM Ag Bound (RU) [8]: 86 RU; Kd [8]: 2.04 nM; koff [8]: 8.18e-05 s⁻¹; kon [8]: 40100 M⁻¹ s⁻¹; t½ [8]: 2.35 h
